Experimental data published in EP4438624A1 (LAVA Therapeutics N.V., dated 2024).

Experiments:
mouse Nectin-4 [1] = target: T1, mouse Nectin-4 (mouse, UniProt Q8R007 31-508); experiment: cell-based ELISA on transfected CHO-K1 cells
T1 construct: whole, on cells; Transiently expressed on CHO-K1 cells; also called murine Nectin-4
T1 sequence (looked up): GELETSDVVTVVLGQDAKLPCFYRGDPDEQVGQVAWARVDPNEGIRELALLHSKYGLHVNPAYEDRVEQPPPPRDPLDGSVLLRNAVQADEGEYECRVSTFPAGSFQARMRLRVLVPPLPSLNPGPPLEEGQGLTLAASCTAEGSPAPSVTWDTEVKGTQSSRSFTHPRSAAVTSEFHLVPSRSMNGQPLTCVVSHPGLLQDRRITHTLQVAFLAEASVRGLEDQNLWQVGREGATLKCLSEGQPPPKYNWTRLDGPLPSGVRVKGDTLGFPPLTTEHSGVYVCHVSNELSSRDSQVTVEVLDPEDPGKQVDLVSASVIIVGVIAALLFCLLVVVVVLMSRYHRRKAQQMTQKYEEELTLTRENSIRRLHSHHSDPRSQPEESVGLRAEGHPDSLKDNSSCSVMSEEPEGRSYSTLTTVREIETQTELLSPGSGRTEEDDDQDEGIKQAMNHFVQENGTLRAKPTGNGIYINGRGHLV

[2] = target: T2, cynomolgus monkey Nectin-4 (cynomolgus monkey, UniProt A0A2K5WES1 32-510); experiment: cell-based ELISA on CHO-K1 cells expressing cynomolgus monkey Nectin-4
T2 construct: whole, on cells; Transiently expressed on CHO-K1 cells; also called cynomolgus Nectin-4
T2 sequence: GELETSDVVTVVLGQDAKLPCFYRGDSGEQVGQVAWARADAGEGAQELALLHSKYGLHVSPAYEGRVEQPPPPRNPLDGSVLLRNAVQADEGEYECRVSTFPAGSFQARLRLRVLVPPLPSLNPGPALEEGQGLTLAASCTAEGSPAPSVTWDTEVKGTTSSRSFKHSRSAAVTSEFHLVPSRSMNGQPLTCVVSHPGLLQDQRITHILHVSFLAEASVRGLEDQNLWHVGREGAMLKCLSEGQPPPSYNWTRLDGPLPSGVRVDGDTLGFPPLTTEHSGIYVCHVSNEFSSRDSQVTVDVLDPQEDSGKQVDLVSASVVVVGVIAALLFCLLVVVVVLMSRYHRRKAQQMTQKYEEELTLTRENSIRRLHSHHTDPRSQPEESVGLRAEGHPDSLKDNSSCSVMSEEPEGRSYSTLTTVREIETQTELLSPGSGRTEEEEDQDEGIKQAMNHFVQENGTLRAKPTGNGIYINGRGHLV

[3] = target: T3, recombinant purified human Nectin-4-Fc fusion protein (human, UniProt Q96NY8 32-349); experiment: BLI (Octet), Nectin-4-Fc on anti-human Fc sensors, run 2
T3 construct: Bought ('Aero Biosystems' as printed); not shown: Fc part of the bought fusion protein; captured by anti-human IgG Fc sensors
T3 sequence: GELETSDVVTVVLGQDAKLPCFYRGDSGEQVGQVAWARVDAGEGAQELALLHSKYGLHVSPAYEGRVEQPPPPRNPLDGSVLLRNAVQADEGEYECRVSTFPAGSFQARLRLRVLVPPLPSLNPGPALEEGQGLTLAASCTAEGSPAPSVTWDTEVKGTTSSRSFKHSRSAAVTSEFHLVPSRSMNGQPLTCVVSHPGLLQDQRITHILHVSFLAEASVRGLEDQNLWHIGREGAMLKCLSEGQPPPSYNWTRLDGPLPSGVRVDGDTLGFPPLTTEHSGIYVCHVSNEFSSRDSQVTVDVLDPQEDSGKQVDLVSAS

[4] = target: T3, recombinant purified human Nectin-4-Fc …; experiment: BLI (Octet), Nectin-4-Fc on anti-human Fc sensors, run 1
mouse Nectin-4 [5] = target: T1, mouse Nectin-4; experiment: cell-based ELISA on CHO-K1 cells expressing mouse Nectin-4
[6] = target: T4, human Nectin-4 (on cells) (human, UniProt Q96NY8 32-510); experiment: flow cytometry on HT-29 cells (endogenous Nectin-4)
T4 construct: also called PVRL4; NECT4_HUMAN
T4 sequence: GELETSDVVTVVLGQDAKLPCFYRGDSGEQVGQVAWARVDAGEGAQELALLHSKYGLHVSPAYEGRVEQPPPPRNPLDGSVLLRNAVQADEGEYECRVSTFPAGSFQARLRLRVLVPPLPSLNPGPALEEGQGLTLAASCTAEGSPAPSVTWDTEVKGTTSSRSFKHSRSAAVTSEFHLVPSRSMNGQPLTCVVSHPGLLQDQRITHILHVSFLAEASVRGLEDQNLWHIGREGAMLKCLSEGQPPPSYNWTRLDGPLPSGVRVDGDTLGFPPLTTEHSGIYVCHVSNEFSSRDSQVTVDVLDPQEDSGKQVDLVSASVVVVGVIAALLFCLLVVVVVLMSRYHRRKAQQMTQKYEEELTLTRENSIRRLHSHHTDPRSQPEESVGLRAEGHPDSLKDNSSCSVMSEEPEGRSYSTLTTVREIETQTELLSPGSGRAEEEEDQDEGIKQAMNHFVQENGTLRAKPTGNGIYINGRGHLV

[7] = target: T4, human Nectin-4 (on cells); experiment: flow cytometry on BeWo cells (endogenous Nectin-4)
[8] = target: T4, human Nectin-4 (on cells); experiment: flow cytometry on A431 cells (endogenous Nectin-4)
[9] = target: T3, recombinant purified human Nectin-4-Fc …; experiment: BLI (Octet), Nectin-4-Fc on anti-human Fc sensors, run 2; remark: listed apart in the source
[10] = target: T3, recombinant purified human Nectin-4-Fc …; experiment: BLI (Octet), Nectin-4-Fc on anti-human Fc sensors, run 1; remark: listed apart in the source

B1: LV1178 (VHH)
VHH: EVQLVESGGALVQAGGSLRLSCSVSGLTASRLTMGWFRQAPGKEREFVARVYASGGLTDYADSVKGRFTISRDNAKNTVYLQMNSLEPEDTAVYYCVAGLWADMRTMTSTRGYWGQGTQVTVSS
notes: Llama-derived anti-Nectin-4 VHH from phage display
With B1 the binding result (mouse Nectin-4 [1]) was “no binding (tested: 0.032 to 500 nM)”, the binding result [2] was “binds” and the Kd [3] was 8.02 nM.

B2: LV1181 (VHH)
VHH: EVQLVESGGGLVQAGGSLRLSCAASGSISSINLMGWHRQAPGKQRELVATITRGGSTNYADSVKGRFTISRDNGKNTVYLQMNSLKPEDTAAYYCVDVEPSGMGWRDYWGQGTQVTVSS
notes: Llama-derived anti-Nectin-4 VHH
With B2 the Kd [4] was 0.8 nM, the binding result (mouse Nectin-4 [5]) was “binds” and the EC50 [6] was 1.5 nM. For the same binder, the EC50 [7] was 0.4 nM, the binding result [2] was “binds” and the Kd [3] was 0.76 nM. It also gave an EC50 [8] of 0.33 nM.

B3: LV1183 (VHH)
VHH: EVQLVESGGGLVQAGGSLRLSCAASGSIFDINLMGWYRQAPGKLRELVASITRGGSTWYVDSVKGRFIISRDSAKNTVYLQMNSLKPGDTAVYYCAAESIGSYTFDRWGQGTQVTVSS
notes: as for B2
For B3, the Kd [4] was 5.7 nM, the binding result (mouse Nectin-4 [1]) was “no binding (tested: 0.032 to 500 nM)” and the binding result [2] was “binds”. The Kd [3] was 7.98 nM.

B4: LV1184 (VHH)
VHH: EVQLVESGGGLVQAGGSLRLSCAASGSISSINLMGWFRQAPAKQRELVTSISPGGSVRYADSVKGRFTISRDVAKNTVDLQMNSLKPEDTAVYYCAAESERTYYFDSWGQGTQVTVSS
notes: as for B2
With B4 the Kd [4] was 0.51 nM, the binding result (mouse Nectin-4 [5]) was “binds” and the EC50 [6] was 1.2 nM. The EC50 [7] was 0.3 nM, the binding result [2] was “binds” and the Kd [3] was 0.51 nM. The EC50 [8] was 0.24 nM.

B5: LV1185 (VHH)
VHH: EVQLVESGGGLVQAGGSLRLSCAASRSTFSLNIMGWYRQAPGKQREYVATITTGGSTNYADSVRGRFTISRDNAEDTVYLQMNSLKPEDTAVYYCTAELVRRGPTTYWGRGTQVTVSS
notes: as for B2
In the case of B5, the Kd [4] is reported as 3.61 nM, the binding result (mouse Nectin-4 [5]) is reported as “binds” and the binding result [2] is reported as “binds”. It also gave a Kd [3] of 2.34 nM.

B6: LV1186 (VHH)
VHH: EVQLVESGGGLVQAGGSLRLSCAASRSTFSLNIMGWYRQAPGKQREYVATITSGGSTNYADSVRGRFTISRDNAENTVYLQMDSLKPEDTAVYYCTAELVRRGPTTYWGRGTQVTVSS
notes: as for B2
For B6, the Kd [4] was 3.93 nM, the binding result (mouse Nectin-4 [5]) was “binds” and the binding result [2] was “binds”. For the same binder, the Kd [3] was 3.94 nM.

B7: LV1187 (VHH)
VHH: EVQLVESGGGLVQAGGFLRLSCAASRSVFRINVMGWYRQAPGKQRELVAGITSGGSRRLADSVKGRFTISRDNAKNTVYLQMNSLKPEDTAVYYCFAEAVVGDEPYWGQGTQVTVSS
notes: as for B2
With B7 the Kd [4] was 5.2 nM, the binding result (mouse Nectin-4 [5]) was “binds” and the binding result [2] was “binds”. The Kd [3] was 6.09 nM.

B8: LV1181xVδ2 (bispecific antibody)
chain: EVQLVESGGGLVQAGGSLRLSCAASGSISSINLMGWHRQAPGKQRELVATITRGGSTNYADSVKGRFTISRDNGKNTVYLQMNSLKPEDTAAYYCVDVEPSGMGWRDYWGQGTQVTVSSGGGGSEVQLVESGGGLVQAGGSLRLSCAASGRPFSNYAMGWFRQAPGKEREFVAAISWSGGSTSYADSVKGRFTISRDNAKNTVYLQMNSPKPEDTAIYYCAAQFSGADYGFGRLGIRGYEYDYWGQGTQVTVSS
notes: Orientation N-term-anti-Nectin-4 VHH-linker-anti-Vδ2 VHH (5C8); no Fc; also called Nectin-4xVδ2 bispecific VHH
Binder B8 has a Kd [9] of 0.37 nM, a koff [9] of 0.0003 s⁻¹ and a kon [9] of 818000 M⁻¹ s⁻¹. For the same binder, the Kd [10] was 0.26 nM, the koff [10] was 0.000266 s⁻¹ and the kon [10] was 1.04e+06 M⁻¹ s⁻¹.

B9: LV1184xVδ2 (bispecific antibody)
chain: EVQLVESGGGLVQAGGSLRLSCAASGSISSINLMGWFRQAPAKQRELVTSISPGGSVRYADSVKGRFTISRDVAKNTVDLQMNSLKPEDTAVYYCAAESERTYYFDSWGQGTQVTVSSGGGGSEVQLVESGGGLVQAGGSLRLSCAASGRPFSNYAMGWFRQAPGKEREFVAAISWSGGSTSYADSVKGRFTISRDNAKNTVYLQMNSPKPEDTAIYYCAAQFSGADYGFGRLGIRGYEYDYWGQGTQVTVSS
notes: as for B8
Binder B9 has a Kd [9] of 0.18 nM, a koff [9] of 0.000149 s⁻¹ and a kon [9] of 844000 M⁻¹ s⁻¹. It also gave a Kd [10] of 0.07 nM, a koff [10] of 6.33e-05 s⁻¹ and a kon [10] of 973000 M⁻¹ s⁻¹.

B10: LV1185xVδ2 (bispecific antibody)
chain: EVQLVESGGGLVQAGGSLRLSCAASRSTFSLNIMGWYRQAPGKQREYVATITTGGSTNYADSVRGRFTISRDNAEDTVYLQMNSLKPEDTAVYYCTAELVRRGPTTYWGRGTQVTVSSGGGGSEVQLVESGGGLVQAGGSLRLSCAASGRPFSNYAMGWFRQAPGKEREFVAAISWSGGSTSYADSVKGRFTISRDNAKNTVYLQMNSPKPEDTAIYYCAAQFSGADYGFGRLGIRGYEYDYWGQGTQVTVSS
notes: as for B8
B10 was tested, and the Kd [9] was 2.4 nM, the koff [9] was 0.00144 s⁻¹ and the kon [9] was 593000 M⁻¹ s⁻¹. It also gave a Kd [10] of 2 nM, a koff [10] of 0.00127 s⁻¹ and a kon [10] of 642000 M⁻¹ s⁻¹.

B11: LV1186xVδ2 (bispecific antibody)
chain: EVQLVESGGGLVQAGGSLRLSCAASRSTFSLNIMGWYRQAPGKQREYVATITSGGSTNYADSVRGRFTISRDNAENTVYLQMDSLKPEDTAVYYCTAELVRRGPTTYWGRGTQVTVSSGGGGSEVQLVESGGGLVQAGGSLRLSCAASGRPFSNYAMGWFRQAPGKEREFVAAISWSGGSTSYADSVKGRFTISRDNAKNTVYLQMNSPKPEDTAIYYCAAQFSGADYGFGRLGIRGYEYDYWGQGTQVTVSS
notes: as for B8
In the case of B11, the Kd [9] is reported as 2.6 nM, the koff [9] is reported as 0.0017 s⁻¹ and the kon [9] is reported as 660000 M⁻¹ s⁻¹. It also gave a Kd [10] of 2.3 nM, a koff [10] of 0.00165 s⁻¹ and a kon [10] of 731000 M⁻¹ s⁻¹.
